Blank lines part the entries; values can stand above or below the molecule they belong to.
What was measured:
ClpC2 = target: T1, ClpC2 (Arabidopsis thaliana, UniProt Q9SXJ7); test: ATPase, inorganic phosphate release, Malachite green; assay type: biochemical; settings: ClpC2 0.5 uM; basal activity without ClpT1
T1 construct: Hsp100 chaperones can assemble into hexamers
T1 sequence (Q9SXJ7 46-952): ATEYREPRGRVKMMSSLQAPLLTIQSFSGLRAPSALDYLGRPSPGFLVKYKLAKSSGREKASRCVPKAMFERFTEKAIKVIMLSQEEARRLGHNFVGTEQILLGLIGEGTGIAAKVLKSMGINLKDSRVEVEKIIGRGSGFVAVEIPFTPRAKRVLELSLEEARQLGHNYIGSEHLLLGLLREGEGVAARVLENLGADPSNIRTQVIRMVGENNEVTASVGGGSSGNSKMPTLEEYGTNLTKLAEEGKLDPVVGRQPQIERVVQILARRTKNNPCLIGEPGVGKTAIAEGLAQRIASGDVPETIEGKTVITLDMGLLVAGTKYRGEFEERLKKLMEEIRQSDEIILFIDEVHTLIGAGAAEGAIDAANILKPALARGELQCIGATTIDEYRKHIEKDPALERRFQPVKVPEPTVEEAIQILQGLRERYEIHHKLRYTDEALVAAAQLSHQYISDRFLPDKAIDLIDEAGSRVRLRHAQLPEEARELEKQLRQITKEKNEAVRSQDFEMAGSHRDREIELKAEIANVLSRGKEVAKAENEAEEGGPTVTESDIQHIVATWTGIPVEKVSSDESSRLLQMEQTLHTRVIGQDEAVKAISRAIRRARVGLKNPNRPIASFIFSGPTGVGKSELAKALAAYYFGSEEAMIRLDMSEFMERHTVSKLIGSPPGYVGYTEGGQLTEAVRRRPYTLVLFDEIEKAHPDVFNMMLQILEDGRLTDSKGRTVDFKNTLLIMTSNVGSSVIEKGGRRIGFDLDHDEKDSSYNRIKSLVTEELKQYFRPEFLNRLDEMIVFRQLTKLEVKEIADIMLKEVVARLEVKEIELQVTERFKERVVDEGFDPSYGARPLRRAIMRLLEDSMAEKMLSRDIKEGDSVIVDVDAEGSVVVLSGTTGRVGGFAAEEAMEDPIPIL

[1] = target: ClpD (recombinant chloroplastic Hsp100 chaperone from Arabidopsis) (Arabidopsis thaliana) (UniProt P42762)
[2] = target: ClpD (recombinant chloroplastic Hsp100 chaperone from Arabidopsis) (Arabidopsis thaliana) (UniProt P42762); remark: listed apart in the source
[3] = target: ClpT1 (recombinant mature ClpT1 from Arabidopsis thaliana, His-tag removed) (Arabidopsis thaliana) (UniProt Q93WL3); test: SEC; 6-fold concentrated sample and 10-fold diluted sample of ClpT1 injected; data not shown
[4] = target: ClpT1 (recombinant mature ClpT1 from Arabidopsis thaliana, His-tag removed) (Arabidopsis thaliana) (UniProt Q93WL3); test: SEC; the small dimer peak of the first run collected and reinjected into the column (second SEC step)
[5] = target: ClpT1 (recombinant mature ClpT1 from Arabidopsis thaliana, His-tag removed) (Arabidopsis thaliana) (UniProt Q93WL3); test: SEC; purified ClpT1 on Superdex 75 10/300 GL, 0.5 mL/min, 50 mM Tris-HCl pH 8.0, 100 mM NaCl; monomer and dimer peaks integrated
[6] = target: ClpT1 (recombinant mature ClpT1 from Arabidopsis thaliana, His-tag removed) (Arabidopsis thaliana) (UniProt Q93WL3); test: cross-linking; EGS at 10, 20, 30 and 50-fold molar excess, 25 μM protein, 50 mM Hepes pH 7.5, 100 mM NaCl, 30 min at room temperature; SDS-PAGE with Coomassie staining
[7] = target: ClpC2 (recombinant chloroplastic Hsp100 chaperone from Arabidopsis) (Arabidopsis thaliana) (UniProt Q9SXJ7); test: ultrafiltration (retention by a 50 kDa cut-off membrane); ClpC2 or ClpD with ClpT1 or GFP, 1.3 μM each, 50 mM Tris-HCl pH 8.0, 150 mM NaCl, 10 mM MgCl2, 5 mM ATP, 10 min at 25°C; Vivaspin 500, 30 s at 11,500 x g; permeate and retentate on SDS-PAGE, densitometry
[8] = target: ClpD (recombinant chloroplastic Hsp100 chaperone from Arabidopsis) (Arabidopsis thaliana) (UniProt P42762); test: as above
[9] = target: glutathione S-transferase; test: cross-linking; EGS at 10, 20, 30 and 50-fold molar excess, 25 μM protein, 50 mM Hepes pH 7.5, 100 mM NaCl, 30 min at room temperature; SDS-PAGE with Coomassie staining
[10] = substrate: Nc1ncnc2c1ncn2[C@@H]1O[C@H](COP(=O)(O)OP(=O)(O)OP(=O)(O)O)[C@@H](O)[C@H]1O; test: ATPase, inorganic phosphate release, Malachite green; Michaelis-Menten fit; assay type: biochemical, Arabidopsis thaliana; settings: without ClpT1; ClpD 0.5 uM; ATP varied 0-12 mM, complete saturation not reached (extrapolated)

Molecule: Nc1ncnc2c1ncn2[C@@H]1O[C@H](COP(=O)(O)OP(=O)(O)OP(=O)(O)O)[C@@H](O)[C@H]1O [ATP]
specific activity (ClpC2): Both chaperones have a basal ATPase activity

ATPase activity of ClpD (Malachite green), ClpT1:ClpD molar ratios from approximately 0.15:1 to 6:1; activation over the basal activity, back to the basal value at 6:1 [1]: > 50% | Vmax of the ClpD ATPase in the presence of ClpT1 at a 1:1 molar ratio (0.19 nmol/(min × μg protein) without ClpT1) (nmol/(min × μg protein)) [2]: 0.43 | percent dimer compared to the monomer species [3]: < 5% | percent of the total protein in the dimer peak after reinjection of the dimer peak [4]: > 92% | percent of the total protein in the dimer peak [5]: < 5% | stoichiometry N [5]: 2 | percent of the total protein cross-linked as dimer at the highest EGS concentration [6]: 60% | stoichiometry N [6]: 2 | percent of ClpT1 kept in the retentate [7]: > 75% | percent of ClpT1 kept in the retentate [8]: > 75%
Molecule: ClpT1 (recombinant mature ClpT1 from Arabidopsis thaliana, His-tag removed) (from UniProt Q93WL3 65-238) (natural protein)

stoichiometry N [9]: 2
Molecule: glutathione S-transferase (enzyme)

B1: ClpD (Arabidopsis thaliana) (protein)
chain: AIIFSQKEAKSLGKDMVYTQHLLLGLIAEDRDPQGFLGSGITIDKAREAVWSIWDEANSDSKQEEASSTSYSKSTDMPFSISTKRVFEAAVEYSRTMDCQYIAPEHIAVGLFTVDDGSAGRVLKRLGANMNLLTAAALTRLKGEIAKDGREPSSSSKGSFESPPSGRIAGSGPGGKKAKNVLEQFCVDLTARASEGLIDPVIGREKEVQRVIQILCRRTKNNPILLGEAGVGKTAIAEGLAISIAEASAPGFLLTKRIMSLDIGLLMAGAKERGELEARVTALISEVKKSGKVILFIDEVHTLIGSGTVGRGNKGSGLDIANLLKPSLGRGELQCIASTTLDEFRSQFEKDKALARRFQPVLINEPSEEDAVKILLGLREKYEAHHNCKYTMEAIDAAVYLSSRYIADRFLPDKAIDLIDEAGSRARIEAFRKKKEDAICILSKPPNDYWQEIKTVQAMHEVVLSSRQKQDDGDAISDESGELVEESSLPPAAGDDEPILVGPDDIAAVASVWSGIPVQQITADERMLLMSLEDQLRGRVVGQDEAVAAISRAVKRSRVGLKDPDRPIAAMLFCGPTGVGKTELTKALAANYFGSEESMLRLDMSEYMERHTVSKLIGSPPGYVGFEEGGMLTEAIRRRPFTVVLFDEIEKAHPDIFNILLQLFEDGHLTDSQGRRVSFKNALIIMTSNVGSLAIAKGRHGSIGFILDDDEEAASYTGMKALVVEELKNYFRPELLNRIDEIVIFRQLEKAQMMEILNLMLQDLKSRLVALGVGLEVSEPVKELICKQGYDPAYGARPLRRTVTEIVEDPLSEAFLAGSFKPGDTAFVVLDDTGNPSVRTKPDSSTIRVTDKTSIA
notes: Hsp100 chaperones can assemble into hexamers
Km [10]: 19.1 mM

Source: PMC4243950, “Characterization of the accessory protein ClpT1 from Arabidopsis thaliana: oligomerization status and interaction with Hsp100 chaperones” (BMC Plant Biology, 2014)
